Laboratory results: patent US20220119534A1 (DRAGONFLY THERAPEUTICS, published 2022)

How the values were obtained:
[1] = molecular target: T1, Human CLEC12A-His (human, UniProt Q5QGZ9 65-265); assay: cell-based or functional assay
T1 sequence: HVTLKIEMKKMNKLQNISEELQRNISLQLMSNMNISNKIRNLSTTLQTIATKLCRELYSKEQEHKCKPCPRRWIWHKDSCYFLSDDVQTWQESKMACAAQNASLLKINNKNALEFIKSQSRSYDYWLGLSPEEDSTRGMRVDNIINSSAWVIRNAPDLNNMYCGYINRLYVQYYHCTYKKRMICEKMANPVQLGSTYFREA

[2] = molecular target: T2, mFc-hNKG2D (human, UniProt P26718 73-216); assay: SPR Biacore 8K 37 C; mFc-hNKG2D captured on anti-mFc chip, TriNKET as analyte; 1:1 kinetic fit; after low pH hold, n=3
T2 construct: extracellular domain; Made in house (Dragonfly Tx); the order of tag and ECD follows the name mFc-hNKG2D; also called mFc-tagged human NKG2D; not shown: mouse Fc tag
T2 sequence (looked up): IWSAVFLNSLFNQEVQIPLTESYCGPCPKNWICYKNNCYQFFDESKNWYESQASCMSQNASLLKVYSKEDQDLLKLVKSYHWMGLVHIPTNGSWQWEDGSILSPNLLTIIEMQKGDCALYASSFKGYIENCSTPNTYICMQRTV

[3] = molecular target: T2, mFc-hNKG2D; assay: SPR Biacore 8K 37 C; mFc-hNKG2D captured on anti-mFc chip, TriNKET as analyte; steady state fit; after 2 wks 40 C at pH 5.0
Experimental: Association was monitored for 60 seconds and dissociation was monitored for 60 seconds. Surfaces were regenerated between cycles with three pulses of 10 mM glycine-HCl, pH 1.7 injected for 20 seconds at 100 μL/min. HBS-EP+ (1×) buffer was used throughout the experiment. Data were analyzed using Biacore 8K Insight evaluation software (GE Healthcare).

- Kd [2]: 671 nM
- koff [2]: 0.139 s⁻¹
- kon [2]: 207000 M⁻¹ s⁻¹
- Kd [3]: 677 nM
B1: F3'-1602 TriNKET (bispecific antibody, human IgG1, kappa)
chain: QLQLQESGPGLVKPSETLSLTCTVSGFSLTNYGLHWIRQPPGKCLEWIGVIWSGGKTDYNPSLKSRVTISKDTSKNQFSLKLSSVQAADTAVYYCAKYDYDDSLDYWGQGTLVTVSSGGGGSGGGGSGGGGSGGGGSDIQMTQSPSSLSASVGDRVTITCHASQNINFWLSWYQQKPGKAPKLLIYEASNLHTGVPSRFSGSGSGTRFTLTISSLQPEDIATYYCQQSHSYPLTFGCGTKLEIKGSDKTHTCPPCPAPELLGGPSVFLFPPKPKDTLMISRTPEVTCVVVDVSHEDPEVKFNWYVDGVEVHNAKTKPREEQYNSTYRVVSVLTVLHQDWLNGKEYKCKVSNKALPAPIEKTISKAKGQPREPRVYTLPPCRDELTKNQVSLTCLVKGFYPSDIAVEWESNGQPENNYKTTPPVLVSDGSFTLYSKLTVDKSRWQQGNVFSCSVMHEALHNHYTQKSLSLSPG
heavy: EVQLVESGGGLVKPGGSLRLSCAASGFTFSSYSMNWVRQAPGKGLEWVSSISSSSSYIYYADSVKGRFTISRDNAKNSLYLQMNSLRAEDTAVYYCARGAPIGAAAGWFDPWGQGTLVTVSSASTKGPSVFPLAPSSKSTSGGTAALGCLVKDYFPEPVTVSWNSGALTSGVHTFPAVLQSSGLYSLSSVVTVPSSSLGTQTYICNVNHKPSNTKVDKKVEPKSCDKTHTCPPCPAPELLGGPSVFLFPPKPKDTLMISRTPEVTCVVVDVSHEDPEVKFNWYVDGVEVHNAKTKPREEQYNSTYRVVSVLTVLHQDWLNGKEYKCKVSNKALPAPIEKTISKAKGQPREPQVCTLPPSRDELTENQVSLTCLVKGFYPSDIAVEWESNGQPENNYKTTPPVLDSDGSFFLYSWLTVDKSRWQQGNVFSCSVMHEALHNHYTQKSLSLSPG
light: DIQMTQSPSSVSASVGDRVTITCRASQGISSWLAWYQQKPGKAPKLLIYAASSLQSGVPSRFSGSGSGTDFTLTISSLQPEDFATYYCQQGVSFPRTFGGGTKVEIKRTVAAPSVFIFPPSDEQLKSGTASVVCLLNNFYPREAKVQWKVDNALQSGNSQESVTEQDSKDSTYSLSSTLTLSKADYEKHKVYACEVTHQGLSSPVTKSFNRGEC
notes: Trispecific F3' format: CLEC12A scFv-Fc paired with NKG2D Fab-Fc; Stressed and control samples of the stability studies are the same molecule; also called AB0237
- EC50 (nM), KHYG-1-CD16aV cytotoxicity assay, PL-21 cells [1]: 0.12 nM
